These results are taken from doi:10.1101/2024.05.10.593562 (bioRxiv, 2024).

For the experiment, the target named is HDAC1-FLAG (UniProt Q13547 1-482). The experiment is described as follows: AlphaScreen or HTRF.
Sequence of HDAC1-FLAG (Q13547 whole entry): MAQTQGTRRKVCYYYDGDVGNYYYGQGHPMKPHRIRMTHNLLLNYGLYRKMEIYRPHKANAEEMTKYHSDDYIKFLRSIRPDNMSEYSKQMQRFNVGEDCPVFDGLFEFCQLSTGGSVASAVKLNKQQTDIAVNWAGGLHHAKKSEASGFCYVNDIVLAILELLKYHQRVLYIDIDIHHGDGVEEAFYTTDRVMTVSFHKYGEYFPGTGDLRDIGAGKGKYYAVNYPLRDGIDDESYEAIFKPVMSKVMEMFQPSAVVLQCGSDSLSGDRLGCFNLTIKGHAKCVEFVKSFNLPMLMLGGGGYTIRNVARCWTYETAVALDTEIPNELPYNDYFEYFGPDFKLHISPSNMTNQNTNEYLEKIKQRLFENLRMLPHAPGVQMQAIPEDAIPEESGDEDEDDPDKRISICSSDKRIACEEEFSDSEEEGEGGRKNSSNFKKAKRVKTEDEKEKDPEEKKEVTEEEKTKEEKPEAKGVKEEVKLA

B1: GST-Rb 380-785 (domain or fragment)
chain: NTIQQLMMILNSASDQPSENLISYFNNCTVNPKESILKRVKDIGYIFKEKFAKAVGQGCVEIGSQRYKLGVRLYYRVMESMLKSEEERLSIQNFSKLLNDNIFHMSLLACALEVVMATYSRSTSQNLDSGTDLSFPWILNVLNLKAFDFYKVIESFIKAEGNLTREMIKHLERCEHRIMESLAWLSDSPLFDLIKQSKDREGPTDHLESACPLNLPLQNNHTAADMYLSPVRSPKKKGSTTRVNSTANAETQATSAFQTQKPLKSTSLSLFYKKVYRLAYLRLNTLCERLLSEHPELEHIIWTLFQHTLQNEYELMRDRHLDQIMMCSMYGICKVKNIDLKFKIIVTAYKDLPHAVQETFKRVLIKEEEYDSIIVFYNSVFMQRLKTNILQYASTRPPTLSPIPHI
Turning to B1, the binding result is listed as “binds”.
